Laboratory results from the nanobody polyreactivity screen of Harvey et al. (2022).

Experiment: yeast display, Sf9 membrane polyspecificity reagent, FACS + sequencing; frameworks hold sequencing errors
Outline: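 Polyreactivity labels are assigned by the sorting gate from which each nanobody was recovered. The gates were low and high (top ~1%), set on anti-HA fluorescence for expression and streptavidin fluorescence for reagent binding. Before sorting, galactose-induced (36–48 hours) yeast display cells were stained for 1 hour at 4 °C with 10% biotinylated, detergent-solubilized Sf9 membrane reagent.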

Row | Sequence | polyreactivity (PSR sort gate)
1 | QVQLVESGGGLVQAGGSLRLICAASGISFDGNPMGWYRQAPGKERELVASITSDSSTNYADSVKGRFTISRDNAKNTVYLQMKSLKPEDTAVYYCAADHWIAPRRDYWGQGTQVTVSS | low polyreactivity
2 | QVQLVESGGGLVQAGGSLRLICAASGITFDGYAMGWYRQAPGKERELVAAISWSGGRTYYADSVKGRFTISRDNAKNTVYLQMNSLKPEDTAVYYCAVYRRGVVYLLTSGVDYWGQGTQVTVSS | high polyreactivity
3 | QVQLVESGGGLVQAGGSLRLICAASGITFRRYTMGWYREAPGKERELVATISLSDGNTYYADSVKGRFTISRDNAKYTLYLQMNSLKPEDTAVYYCNARHTWHQTYDYWGQGTIVTVSS | low polyreactivity
4 | QVQLVESGGGLVQAGGSLRLICAASGITFSLYVKGRYSQAPGNERELVAAISTSGGSTYYADSVKGRFSLSRDNPKKSVYFQMNSLKPEDTSVYYCAAVYVLSWYVQTYDYWGQGTQVTVSS | low polyreactivity
5 | QVQLVESGGGLVQAGGSLRLICAASGITFSTYTMGWYRQAPRKEREFVAAISSRGGSTYYADSVKGRFTISRDNAKNTAYLQMNRLIPEVTAVYYCAAALVAPFDYWVQGTQVTVSS | high polyreactivity
6 | QVQLVESGGGLVQAGGSLRLICAASGITLPIYAMGWYRQAPGKERELVATISQRDARTYYADSVKGRFTISRDNAKNTVYLQMNSLKPEDTAVYYCARGYKKSVQRFEYWGQGTQVTVSS | high polyreactivity
7 | QVQLVESGGGLVQAGGSLRLICAASGLIFGPYAMGWYRQAPGKEREFVAAITRSDGSTYYADSVKGRFTISRDNAKNTVFLQMNSLNPEDTAVYYCNADAGYVWFGGAYYWPYDYWRQGTQVTVSS | low polyreactivity
8 | QVQLVESGGGLVQAGGSLRLICAASGLTFAGYAMGWYRQAPGKERELVAAITYSTGRTYYADSVKGRFTISRDNAKNTVYLQMNSLKPEDTAVYYCAALLRGQDRTMDYWGQGTQVTVSS | high polyreactivity
9 | QVQLVESGGGLVQAGGSLRLICAASGLTFFRNAMGWYRQAPGKEREFVAGITSTDGSTYYADSVKGRFTISRDNAKNTVYLQMNSLKPEDTAVYYCAAAYRVRGRTYDSWGQGTQVTVSS | high polyreactivity
10 | QVQLVESGGGLVQAGGSLRLICAASGLTFGSNGMGWYRQAPGKERELVAAISRGGSTSYADSVKGRFTISRDNAKNTVYLQMNSLKPEDTAVYYCNASPWGPSYFRTPYYGVRRYNYWGQGTQVTVSS | high polyreactivity
11 | QVQLVESGGGLVQAGGSLRLICAASGLTFISYAMGWYRQAPGKERELVAAITYSGGSTYYADSVKGRFTISRDNAKNTVYLQMNSLKPEDTAVYYCAVEIPGLLWYLPTYDYWGQGTQVTVSS | low polyreactivity
12 | QVQLVESGGGLVQAGGSLRLICAASGLTFRPNSMGWFRQAPGKERELVAAITWLGGRTYYADSVKGRFTISRDNSKNTVYLQMNSLKPEDTEVYYCSADSPYRGRQCPLNYGGDYWGQGTQVTVSS | high polyreactivity
13 | QVQLVESGGGLVQAGGSLRLICAASGLTLYPYAMGWYRQAPGKERELVAAISGAGTRTYYADSVKGRFTISRDNAKNTVYLQMNSLKPEDTAVYYCAAVGFRPYDYWGQGTQLTVSS | high polyreactivity
14 | QVQLVESGGGLVQAGGSLRLICAASGNIFHRYAMGWYRQAPGKERELVAAINGGGGSTYYADSVKGRFTISRDNAKNTVYLQMNSLKPEDTAVYSCAAVVQNGVHIYDYWGQGTQVTVSS | high polyreactivity
15 | QVQLVESGGGLVQAGGSLRLICAASGNIFSYNAMGWYRQAPGKERELVAAISRRGGSTFYADSVKGRFTISRDKAKNTVYLQMNSLKPEDTAVYYCAASRNRYSYGYWGQGTQVTVSS | high polyreactivity
16 | QVQLVESGGGLVQAGGSLRLICAASGNIFVYYALGWYRQAPGKERELVAAITSDVSTYYADSVKGRFTISRDNAKNTVYLQLNSLKPEVTAVYYCATTGYGSYVIYWGQGTQVTVSS | low polyreactivity
17 | QVQLVESGGGLVQAGGSLRLICAASGRIFAHYARGWYRQAPGKERELVAAISWRGGRTYYADSVKGRFTISRDNAKNTVYLQMNSLKPEDTAVYYCNAVGYSQGYDYWGQGTQVTVSS | high polyreactivity
18 | QVQLVESGGGLVQAGGSLRLICAASGRIFDFYAMGWYRQAPGKDRELVAAITTGDSTYYADSVKGRFTISRDNAKNTVYLQMNSLKPEDTAVYDCAAVGHGGWDGDDYWGQGTQVTVSS | low polyreactivity
19 | QVQLVESGGGLVQAGGSLRLICAASGRIFGSYVMGWYRQAPGKERELVAAISFSGDTTYYADSVKGRFTISRDNAKNTVYLQMNSLKPDDTAVYYCAAEFPQGYYAFKYDYWGQGTQVTVSS | high polyreactivity
20 | QVQLVESGGGLVQAGGSLRLICAASGRIFKWYVMGWYRQAPGKERELVAAISRSGDSTNYADSVKGRFTISRDNAKNTVYLQMNSLKPEDTAVYYCAVGYRYLKWVDYWGQGTQVTVSS | high polyreactivity
21 | QVQLVESGGGLVQAGGSLRLICAASGRIFLGYAMGWYRQAPGKERELVARITLIGGGTNYADSVKGRFTISRDNAKNTVYLQMNSLKPVDTAVYYCAAKSPLRPWWVGAVSGNYWGQGTQVTVSS | low polyreactivity
22 | QVQLVESGGGLVQAGGSLRLICAASGRIFLWNAMGWYRQAPGKEREFVATISWNDAISYYADSVKGRFTISRDNAKNSVYLQMNSLKPEDTAVYYCNVDPKIVLSFGYDYWGQGTQVTVSS | low polyreactivity

Row | Sequence | polyreactivity (PSR sort gate)
23 | QVQLVESGGGLVQAGGSLRLICAASGRIFPSYTMGWYRQAPGKERELVAGITKSGSSTYYADSVKGRFTISRDNAKNTVYLQMNSLKPEDTAVYYCAAVYGNPSYRYGYWGQGTQVTVSS | high polyreactivity
24 | QVQLVESGGGLVQAGGSLRLICAASGRIFRGNAMGWYRQAPGKERELVATISSDGSTNYADSVKGRFTISRDNAKNSVYLQMNSLKPEDTAVYYCAKGFYTITPHGMDYWGQGTQVTVSS | low polyreactivity
25 | QVQLVESGGGLVQAGGSLRLICAASGRIFRQNAMGWYRQEPGKERELVASISSGGNTYYADSVKGRFTISRDNAKNTVYLEMNSLKPEDTAVYYCAAAKQRYYRWWTTPGYDYWGQGTQVTVSS | low polyreactivity
26 | QVQLVESGGGLVQAGGSLRLICAASGRIFWGNAMGWYRQAPGKERELVAAINSIGGTTYYADSVKGRFTISRDNAKNTVYLQMNSLKPEDTAVYYCAAQTFVYRKELLSRYEYWGQGTQVTVSS | high polyreactivity
27 | QVQLVESGGGLVQAGGSLRLICAASGRIFWYYAMGWYRQAPGKERELVASITSGGRTKYADSVKGRFTISRDNAKNTVYLQMNSLKPEDTAVYYCAARLLIDYHADWWVAYDYWGQGTQVTVSS | low polyreactivity
28 | QVQLVESGGGLVQAGGSLRLICAASGRIFYVYAMGWYRQAPGKERELVAAITSGGSTYYADSVKGRFTISRDNAKNTVYLQMNSLKPEDTAVYYCAAYNRGRFRPYRFEYWGQGTQVTVSS | high polyreactivity
29 | QVQLVESGGGLVQAGGSLRLICAASGRIIRYYAMGWYRQAPGKERELVAITSSGGRTYYADSVKGRFSISRDNAKNTVYLQMNSLKPEDTAVYYCAVDSHCPGRGERFIRLDYWGQGTQVTVSS | low polyreactivity
30 | QVQLVESGGGLVQAGGSLRLICAASGRILKYNAMGWYRQAPGKERELVAAISYRGGSTYYADSVKGRFTISRDTAKYTVYLLMNSLKPEDTAVYYCNAGGGILNGPLFDYWGQGTQVTVSS | low polyreactivity
31 | QVQLVESGGGLVQAGGSLRLICAASGRILRYYAMGWYRQAPGKERELVASISRGGSTYYADSVKGRFTISRDNAKNTFYLQMNSLKPEDTAVYYCAKSVTGWRGLWYTPRNYYWGQGTQVTVSS | high polyreactivity
32 | QVQLVESGGGLVQAGGSLRLICAASGRILWYYAMGWYRQAPGKERELVAAITSSGRTKYADSVKGRFTISRDNAKNTVYLQMNSLKPEDSAVYYCAARPSQWNYDYRRVYYWGQGTQVTVSS | high polyreactivity
33 | QVQLVESGGGLVQAGGSLRLICAASGRNFSGNAMGWYTQAPRKERELVAAISTGGSTNYADSVKGRFTISRDNAKNTVYLHMNSLKQEDTAVYYCAADEWRFPSYAYYYWGQGTQVNVSS | low polyreactivity
34 | QVQLVESGGGLVQAGGSLRLICAASGRTFFYYAMGWYRQAPGKEREFVAAISWSAGSTYYADSVKGRFTISRDNAKITVSLQMNSLKPKDTGVYYCAAARPSGGGFDYWGQGTQVTVSS | high polyreactivity
35 | QVQLVESGGGLVQAGGSLRLICAASGRTFGGYAMASYRQAPGKERELVAAITYSGSSTYYADSVKGRFTISRDNAKNTVYLQMNSLKPEDTAVYYCAARGRQTWYNYWGQGTQVTVSS | high polyreactivity
36 | QVQLVESGGGLVQAGGSLRLICAASGRTFNGYAMGWYRQAPGKERELVAAINASGGRTYYADSVKGRFTISRDNAKNTVYLQMNSLKPEDTAVYYCNARRYHWSVYYYDYWGQGTQVTVSS | high polyreactivity
37 | QVQLVESGGGLVQAGGSLRLICAASGRTFQYYAMGWYRQARGKERELVAAISWSGGSTYYADSVKGRFTISRDNAKNTVYLQMNSLKAEDNAVYYFAASFRGQIVGYWGQGTQVTVSS | high polyreactivity
38 | QVQLVESGGGLVQAGGSLRLICAASGRTFRFYAKGWYRQAPGKERELVAAITSGGSTTYAYSVKGRFTISRDNAKNTVYLQMNSLKPEDTAVYYCNADRARAYDYWGQGTQVTVSS | high polyreactivity
39 | QVQLVESGGGLVQAGGSLRLICAASGRTFRFYTMGWYRQAPGKERELVAGIRQRGGTTYYADSVKGRFTISRDNAKNTVYLQMNSLKPEDTAVYYCAADVYYPFYSPGFDYWGQGTQVTVSS | high polyreactivity
40 | QVQLVESGGGLVQAGGSLRLICAASGRTFYLYAMGWYRQAPGKERELVASITKSGGSTYYADSVKGRFTISRDNAKNTVYLQMNSLKPEDTAVYYCATDGRWRLAGAFTGKRRTYDYWGQGTQVTVSS | low polyreactivity
41 | QVQLVESGGGLVQAGGSLRLICAASGSIFADYAMGWYRQAPGKERELVAAITGGTSTYYADSVKGRFTISRDNAKNTVYLQMNSLKPEDTAVYYCAAYYYWEFSYYEYDYWGQGSQVTVSS | low polyreactivity
42 | QVQLVESGGGLVQAGGSLRLICAASGSIFAYNAMGWYRQAPGKERELVAAITDSAGSTYYADSVKGRFTISRDNAKNTVYLQMYSLKPEDTAVYYGAKYTTRGVYRYWPKDMDYWGQGTQVTVSS | low polyreactivity
43 | QVQLVESGGGLVQAGGSLRLICAASGSIFDPYAMGWYRQAPGKERELVAAITYSAARTYYADSVKGRFTISRDNAKNTVYLQMNSLKPEDTAVYYFNRVVRREAERYDYWGQGTQVTVSS | high polyreactivity
